This experiment addresses GST-Raf(1-257) (human). Briefly: peptide competition of Ras-GTP / GST-Raf co-precipitation.

No end group written: not given here.

This note sets out measurements from patent US5763571, “Inhibiting protein interactions” (The General Hospital Corporation, dated 1998).

Molecule EDSYRKQVVIDGETC (not fully specified (N-terminus, C-terminus)) [Ras 37-51 peptide] had an IC50 of 100 µM.

A word on the IC50: it is the midpoint of a concentration-inhibition curve. Higher therefore signals weaker potency.
